Assay results as given in paper PMC7367873, “Dissecting the sequence determinants for dephosphorylation by the catalytic subunits of phosphatases PP1 and PP2A” (Nature Communications, 2020).

B1: FBL (protein, UniProt P22087 1-321, looked up)
rRNA 2'-O-methyltransferase …: MKPGFSPRGGGFGGRGGFGDRGGRGGRGGFGGGRGRGGGFRGRGRGGGGGGGGGGGGGRGGGGFHSGGNRGRGRGGKRGNQSGKNVMVEPHRHEGVFICRGKEDALVTKNLVPGESVYGEKRVSISEGDDKIEYRAWNPFRSKLAAAILGGVDQIHIKPGAKVLYLGAASGTTVSHVSDIVGPDGLVYAVEFSHRSGRDLINLAKKRTNIIPVIEDARHPHKYRMLIAMVDVIFADVAQPDQTRIVALNAHTFLRNGGHFVISIKANCIDSTASAEAVFASEVKKMQQENMKPQEQLTLEPYERDHAVVVGVYRPPPKVKN
B2: GAPVD1 (protein, UniProt Q14C86 1-1478, looked up)
GTPase-activating protein and …: MVKLDIHTLAHHLKQERLYVNSEKQLIQRLNADVLKTAEKLYRTAWIAKQQRINLDRLIITSAEASPAECCQHAKILEDTQFVDGYKQLGFQETAYGEFLSRLRENPRLIASSLVAGEKLNQENTQSVIYTVFTSLYGNCIMQEDESYLLQVLRYLIEFELKESDNPRRLLRRGTCAFSILFKLFSEGLFSAKLFLTATLHEPIMQLLVEDEDHLETDPNKLIERFSPSQQEKLFGEKGSDRFRQKVQEMVESNEAKLVALVNKFIGYLKQNTYCFPHSLRWIVSQMYKTLSCVDRLEVGEVRAMCTDLLLACFICPAVVNPEQYGIISDAPINEVARFNLMQVGRLLQQLAMTGSEEGDPRTKSSLGKFDKSCVAAFLDVVIGGRAVETPPLSSVNLLEGLSRTVVYITYSQLITLVNFMKSVMSGDQLREDRMALDNLLANLPPAKPGKSSSLEMTPYNTPQLSPATTPANKKNRLPIATRSRSRTNMLMDLHMDHEGSSQETIQEVQPEEVLVISLGTGPQLTPGMMSENEVLNMQLSDGGQGDVPVDENKLHGKPDKTLRFSLCSDNLEGISEGPSNRSNSVSSLDLEGESVSELGAGPSGSNGVEALQLLEHEQATTQDNLDDKLRKFEIRDMMGLTDDRDISETVSETWSTDVLGSDFDPNIDEDRLQEIAGAAAENMLGSLLCLPGSGSVLLDPCTGSTISETTSEAWSVEVLPSDSEAPDLKQEERLQELESCSGLGSTSDDTDVREVSSRPSTPGLSVVSGISATSEDIPNKIEDLRSECSSDFGGKDSVTSPDMDEITHGAHQLTSPPSQSESLLAMFDPLSSHEGASAVVRPKVHYARPSHPPPDPPILEGAVGGNEARLPNFGSHVLTPAEMEAFKQRHSYPERLVRSRSSDIVSSVRRPMSDPSWNRRPGNEERELPPAAAIGATSLVAAPHSSSSSPSKDSSRGETEERKDSDDEKSDRNRPWWRKRFVSAMPKAPIPFRKKEKQEKDKDDLGPDRFSTLTDDPSPRLSAQAQVAEDILDKYRNAIKRTSPSDGAMANYESTGDNHDRDLSSKLLYHSDKEVMGDGESAHDSPRDEALQNISADDLPDSASQAAHPQDSAFSYRDAKKKLRLALCSADSVAFPVLTHSTRNGLPDHTDPEDNEIVCFLKVQIAEAINLQDKNLMAQLQETMRCVCRFDNRTCRKLLASIAEDYRKRAPYIAYLTRCRQGLQTTQAHLERLLQRVLRDKEVANRYFTTVCVRLLLESKEKKIREFIQDFQKLTAADDKTAQVEDFLQFLYGAMAQDVIWQNASEEQLQDAQLAIERSVMNRIFKLAFYPNQDGDILRDQVLHEHIQRLSKVVTANHRALQIPEVYLREAPWPSAQSEIRTISAYKTPRDKVQCILRMCSTIMNLLSLANEDSVPGADDFVPVLVFVLIKANPPCLLSTVQYISSFYASCLSGEESYWWMQFTAAVEFIKTIDDRK
B3: NEXN (protein, UniProt Q0ZGT2 1-675, looked up)
Nexilin: MNDISQKAEILLSSSKPVPKTYVPKLGKGDVKDKFEAMQRAREERNQRRSRDEKQRRKEQYIREREWNRRKQEIKEMLASDDEEDVSSKVEKAYVPKLTGTVKGRFAEMEKQRQEEQRKRTEEERKRRIEQDMLEKRKIQRELAKRAEQIEDINNTGTESASEEGDDSLLITVVPVKSYKTSGKMKKNFEDLEKEREEKERIKYEEDKRIRYEEQRPSLKEAKCLSLVMDDEIESEAKKESLSPGKLKLTFEELERQRQENRKKQAEEEARKRLEEEKRAFEEARRQMVNEDEENQDTAKIFKGYRPGKLKLSFEEMERQRREDEKRKAEEEARRRIEEEKKAFAEARRNMVVDDDSPEMYKTISQEFLTPGKLEINFEELLKQKMEEEKRRTEEERKHKLEMEKQEFEQLRQEMGEEEEENETFGLSREYEELIKLKRSGSIQAKNLKSKFEKIGQLSEKEIQKKIEEERARRRAIDLEIKEREAENFHEEDDVDVRPARKSEAPFTHKVNMKARFEQMAKAREEEEQRRIEEQKLLRMQFEQREIDAALQKKREEEEEEEGSIMNGSTAEDEEQTRSGAPWFKKPLKNTSVVDSEPVRFTVKVTGEPKPEITWWFEGEILQDGEDYQYIERGETYCLYLPETFPEDGGEYMCKAVNNKGSAASTCILTIESKN
B4: LMNB1 (protein, UniProt P20700 2-583, looked up)
Lamin-B1: ATATPVPPRMGSRAGGPTTPLSPTRLSRLQEKEELRELNDRLAVYIDKVRSLETENSALQLQVTEREEVRGRELTGLKALYETELADARRALDDTARERAKLQIELGKCKAEHDQLLLNYAKKESDLNGAQIKLREYEAALNSKDAALATALGDKKSLEGDLEDLKDQIAQLEASLAAAKKQLADETLLKVDLENRCQSLTEDLEFRKSMYEEEINETRRKHETRLVEVDSGRQIEYEYKLAQALHEMREQHDAQVRLYKEELEQTYHAKLENARLSSEMNTSTVNSAREELMESRMRIESLSSQLSNLQKESRACLERIQELEDLLAKEKDNSRRMLTDKEREMAEIRDQMQQQLNDYEQLLDVKLALDMEISAYRKLLEGEEERLKLSPSPSSRVTVSRASSSRSVRTTRGKRKRVDVEESEASSSVSISHSASATGNVCIEEIDVDGKFIRLKNTSEQDQPMGGWEMIRKIGDTSVSYKYTSRYVLKAGQTVTIWAANAGVTASPPTDLIWKNQNSWGTGEDVKVILKNSQGEEVAQRSTVFKTTIPEEEEEEEEAAGVVVEEELFHQQGTPRASNRSC
B5: HNRNPA0 (protein, UniProt Q13151 1-305, looked up)
Heterogeneous nuclear …: MENSQLCKLFIGGLNVQTSESGLRGHFEAFGTLTDCVVVVNPQTKRSRCFGFVTYSNVEEADAAMAASPHAVDGNTVELKRAVSREDSARPGAHAKVKKLFVGGLKGDVAEGDLIEHFSQFGTVEKAEIIADKQSGKKRGFGFVYFQNHDAADKAAVVKFHPIQGHRVEVKKAVPKEDIYSGGGGGGSRSSRGGRGGRGRGGGRDQNGLSKGGGGGYNSYGGYGGGGGGGYNAYGGGGGGSSYGGSDYGNGFGGFGSYSQHQSSYGPMKSGGGGGGGGSSWGGRSNSGPYRGGYGGGGGYGGSSF
B6: RIN1 (protein, UniProt Q13671 1-783, looked up)
Ras and Rab interactor 1: MESPGESGAGSPGAPSPSSFTTGHLAREKPAQDPLYDVPNASGGQAGGPQRPGRVVSLRERLLLTRPVWLQLQANAAAALHMLRTEPPGTFLVRKSNTRQCQALCMRLPEASGPSFVSSHYILESPGGVSLEGSELMFPDLVQLICAYCHTRDILLLPLQLPRAIHHAATHKELEAISHLGIEFWSSSLNIKAQRGPAGGPVLPQLKARSPQELDQGTGAALCFFNPLFPGDLGPTKREKFKRSFKVRVSTETSSPLSPPAVPPPPVPVLPGAVPSQTERLPPCQLLRRESSVGYRVPAGSGPSLPPMPSLQEVDCGSPSSSEEEGVPGSRGSPATSPHLGRRRPLLRSMSAAFCSLLAPERQVGRAAAALMQDRHTAAGQLVQDLLTQVRAGPEPQELQGIRQALSRARAMLSAELGPEKLLSPKRLEHVLEKSLHCSVLKPLRPILAARLRRRLAADGSLGRLAEGLRLARAQGPGAFGSHLSLPSPVELEQVRQKLLQLLRTYSPSAQVKRLLQACKLLYMALRTQEGEGAGADEFLPLLSLVLAHCDLPELLLEAEYMSELLEPSLLTGEGGYYLTSLSASLALLSGLGQAHTLPLSPVQELRRSLSLWEQRRLPATHCFQHLLRVAYQDPSSGCTSKTLAVPPEASIATLNQLCATKFRVTQPNTFGLFLYKEQGYHRLPPGALAHRLPTTGYLVYRRAEWPETQGAVTEEEGSGQSEARSRGEEQGCQGDGDAGVKASPRDIREQSETTAEGGQGQAQEGPAQPGEPEAEGSRAAEE
B7: ABLIM1 (protein, UniProt O14639 1-778, looked up)
Actin-binding LIM protein 1: MPAFLGLKCLGKLCSSEKSKVTSSERTSARGSNRKRLIVEDRRVSGTSFTAHRRATITHLLYLCPKDYCPRGRVCNSVDPFVAHPQDPHHPSEKPVIHCHKCGEPCKGEVLRVQTKHFHIKCFTCKVCGCDLAQGGFFIKNGEYLCTLDYQRMYGTRCHGCGEFVEGEVVTALGKTYHPNCFACTICKRPFPPGDRVTFNGRDCLCQLCAQPMSSSPKETTFSSNCAGCGRDIKNGQALLALDKQWHLGCFKCKSCGKVLTGEYISKDGAPYCEKDYQGLFGVKCEACHQFITGKVLEAGDKHYHPSCARCSRCNQMFTEGEEMYLQGSTVWHPDCKQSTKTEEKLRPTRTSSESIYSRPGSSIPGSPGHTIYAKVDNEILDYKDLAAIPKVKAIYDIERPDLITYEPFYTSGYDDKQERQSLGESPRTLSPTPSAEGYQDVRDRMIHRSTSQGSINSPVYSRHSYTPTTSRSPQHFHRPGNEPSSGRNSPLPYRPDSRPLTPTYAQAPKHFHVPDQGINIYRKPPIYKQHAALAAQSKSSEDIIKFSKFPAAQAPDPSETPKIETDHWPGPPSFAVVGPDMKRRSSGREEDDEELLRRRQLQEEQLMKLNSGLGQLILKEEMEKESRERSSLLASRYDSPINSASHIPSSKTASLPGYGRNGLHRPVSTDFAQYNSYGDVSGGVRDYQTLPDGHMPAMRMDRGVSMPNMLEPKIFPYEMLMVTNRGRNKILREVDRTRLERHLAPEVFREIFGMSIQEFDRLPLWRRNDMKKKAKLF
B8: PHB (protein, UniProt P35232 2-272, looked up)
Prohibitin 1: AAKVFESIGKFGLALAVAGGVVNSALYNVDAGHRAVIFDRFRGVQDIVVGEGTHFLIPWVQKPIIFDCRSRPRNVPVITGSKDLQNVNITLRILFRPVASQLPRIFTSIGEDYDERVLPSITTEILKSVVARFDAGELITQRELVSRQVSDDLTERAATFGLILDDVSLTHLTFGKEFTEAVEAKQVAQQEAERARFVVEKAEQQKKAAIISAEGDSKAAELIANSLATAGDGLIELRKLEAAEDIAYQLSRSRNITYLPAGQSVLLQLPQ

The molecules below were run on GFP-14-3-3β and its binding proteins (assay: GFP-14-3-3β co-IP with LC-MS/MS label-free quantification, untreated versus PP1c-treated). Conditions: PP1 vs untreated; LFQ intensities, replicates 1-3.
Design: species or system human

Compared with B1, B2 is lower in “Difference (log2), PP1 vs untreated” value: -1.367 log2 for the first, -1.38 log2 for the second.

Going from B3 to B4, the “Difference (log2), PP1 vs untreated” value falls from -1.398 log2 to -1.41 log2.

First: B5
Second: B6
The “Difference (log2), PP1 vs untreated” value of the first is higher: -1.439 log2 for the first, -1.475 log2 for the second.

In the case of B7, the “Difference (log2), PP1 vs untreated” value is reported as -1.4799 log2.

Same assay, conditions: log2 difference; pairwise comparison PP1 vs untreated, label-free quantification, 3 replicates each

In the case of B8, the “Difference (log2), PP1 vs untreated” value is reported as 1.5807.

What follows are molecules tested on GFP-14-3-3β (assay: GFP-14-3-3β co-IP with LC-MS/MS, untreated GFP-14-3-3β versus GFP control (14-3-3 interactome)). Conditions: log2 difference; pairwise comparison untreated vs GFP, label-free quantification, 3 replicates each.
Type: binding, human

B8 was tested, and the “Difference (log2), untreated vs GFP” value was 1.469.

Same assay, conditions: untreated vs GFP; LFQ intensities, replicates 1-3

First: B1
Second: B2
The “Difference (log2), untreated vs GFP” value of the first is lower: 2.48 log2 for the first, 4.189 log2 for the second.

First: B3
Second: B4
The “Difference (log2), untreated vs GFP” value of the first is lower: 0.832 log2 for the first, 2.359 log2 for the second.

Going from B5 to B6, the “Difference (log2), untreated vs GFP” value rises from 3.698 log2 to 6.141 log2.

B7 was tested, and the “Difference (log2), untreated vs GFP” value was 3.166 log2.
